Test results as given in the supplement of paper PMC10567573.
± gives the standard deviation.

Test: protein stability index of a GFP-peptide fusion (GPS, HEK-293T) (PSI 1-6); higher = more stable
[1] = treatment: DMSO, c terminus: a fixed tail appended
[2] = treatment: MLN4924 1 uM, 8 h, c terminus: a fixed tail appended
[3] = treatment: DMSO, c terminus: native
[4] = treatment: MLN4924 1 uM, 8 h, c terminus: native
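Also: 24-mer peptide tiles fused after GFP, lentivirally expressed, FACS-sorted into six equal bins by GFP/DsRed ratio, decoded by Illumina sequencing, PSI is the read-weighted mean bin number.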

Row | Sequence | protein stability index [1] | protein stability index [2] | protein stability index [3] | protein stability index [4]
1 | VTFREENTIAFRHLFLLGYSDGAD [MCOLN1] | 2.38 ± 0.2 | 2.2 ± 0.11 | – | –
2 | FKTYISPWERAMGVDPQQKMELGI [MYOZ1] | 2.42 ± 0.25 | 2.31 ± 0.38 | – | –
3 | SFVKKNVLVTGGFFGGFLLGMAS [FUNDC2] | – | – | 3.64 ± 0.15 | 2.96 ± 0.41
4 | AGSSNLPAPERTMAGLSKEPNTLR [VENTX] | 4.48 ± 0.45 | 4.71 ± 0.47 | – | –
5 | LENRIQREIALAKKHGTQNKRAAL [CHMP4C] | 4.09 ± 0.26 | 4.04 ± 0.25 | – | –
6 | TTPSTSSSSSFDPSVFDGLGDLLM [SNAP91] | 3.32 ± 0.21 | 3.48 ± 0.28 | – | –
7 | RIRIDDEPANLDILDTAGQAEFTA [RIT1] | 4.62 ± 0.23 | 4.77 ± 0.11 | – | –
8 | LEEEEEEEDLVLTCEDDEDEELGG [ZBTB22] | 5.57 ± 0.2 | 5.56 ± 0.18 | – | –
9 | QYQANKVTHTLTMRQRISRVEESA [PPEF2] | 3.65 ± 0.16 | 3.77 ± 0.16 | – | –
10 | NVVPIHVPPTTENKPKVQCCQNI [RAB11A] | – | – | 4.13 ± 0.19 | 4.12 ± 0.11
11 | FKRSTGTWHHTKPLLPSDLRRTGC [GAN] | 2.78 ± 0.22 | 2.82 ± 0.39 | – | –
12 | LPILTWPVLQSRTGLVYDQNMMNH [HDAC6] | 2.25 ± 0.23 | 2.3 ± 0.33 | – | –
13 | AISPGRFPEALDELPLPPFLQPLD [ANKRD9] | 3.91 ± 0.32 | 3.96 ± 0.18 | – | –
14 | GIAVWNMDVSREEAPQWLESDSCQ [WDFY1] | 3.81 ± 0.081 | 3.74 ± 0.28 | – | –
15 | SSRQTRPILKEQSSSSFSQGQSS [KRT16] | – | – | 5.3 ± 0.29 | 5.33 ± 0.25
16 | SPSSDLDTDAEGDDFELLDQSELS [RETREG3] | 5.56 ± 0.13 | 5.38 ± 0.12 | – | –
17 | SINTHLGKEQSRRDDLEALGHMFM [CSNK1G3] | 2.81 ± 0.28 | 3.03 ± 0.49 | – | –
18 | SMTTPRCYVGATVLRGRLYAIAGY [KLHL12] | 2.14 ± 0.36 | 2.51 ± 0.58 | – | –
19 | QEAMKRLRGAKAFRLPGLSRRERE [FCHO1] | 3.91 ± 0.25 | 4.13 ± 0.2 | – | –
20 | EVFEGREDSILGDPKKLLTQHFVQ [MAGEA3] | 3.42 ± 0.49 | 3.29 ± 0.4 | – | –
21 | PPPPPGPPPPPGLPSDGDHQVPTT [WASL] | 5.48 ± 0.26 | 5.63 ± 0.21 | – | –
22 | SPREGEELKPEDKDPRDPEESKEP [GNAS] | 5.78 ± 0.14 | 5.71 ± 0.26 | – | –
23 | AMDLGFFVVMGVIGGLLGATFNCL [CLCN6] | 2.68 ± 0.13 | 3.19 ± 0.056 | – | –

Row | Sequence | protein stability index [1] | protein stability index [2] | protein stability index [3] | protein stability index [4]
24 | DLYNWEVAIFGPPNTLYEGGYFKA [UBE2R2] | 2.66 ± 0.4 | 2.32 ± 0.37 | – | –
25 | YTPDLPRADVDHAIEKAFQLWSNV [MMP1] | 2.6 ± 0.73 | 2.86 ± 0.77 | – | –
26 | VRVALDYEAGQVTLHNAQTQEPIF [TRIM15] | 2.29 ± 0.33 | 2.51 ± 0.33 | – | –
27 | VAAELLNHLLESMPLREGSSFQDL [HES6] | 3.11 ± 0.69 | 3.35 ± 0.79 | – | –
28 | IGCKKPVSASGKEMDWAQMACHRC [SMG5] | 3.04 ± 0.34 | 3.48 ± 0.28 | – | –
29 | VRQAFQDQDDRRTWDGRPLTMAAT [GFOD1] | 3.829 ± 0.031 | 3.65 ± 0.26 | – | –
30 | EILTCGRDGEPEPMQKLQDLVNRT [RBBP5] | 4.01 ± 0.2 | 3.78 ± 0.25 | – | –
31 | YLNHVRAASPQDLAGGYTSSLACH [MNAT1] | 2.85 ± 0.39 | 2.95 ± 0.34 | – | –
32 | FEDLPLQEPQSPQKLNPGFDLAKG [PLAGL1] | 5.03 ± 0.14 | 4.83 ± 0.19 | – | –
33 | ENFKGLAIPYLEHIIHVWEETGSR [VPS39] | 2.52 ± 0.32 | 2.48 ± 0.4 | – | –
34 | QTEKLLQFQDLTGIESMDQCRHTL [FAF2] | 3.82 ± 0.21 | 3.66 ± 0.33 | – | –
35 | ESTTKESSEASQLEDAAGGDSASE [FBXO34] | 5.61 ± 0.34 | 5.71 ± 0.12 | – | –
36 | WVYSGRRGVHCWVCDESVRKLSSA [PRIM1] | 2.51 ± 0.84 | 3.04 ± 0.39 | – | –
37 | SRSTSFRGGMGSGGLATGIAGGLA [KRT18] | 3.3 ± 0.066 | 3.33 ± 0.37 | – | –
38 | HVPELEMLGRLGYLNHVRAASPQD [MNAT1] | 3.44 ± 0.2 | 3.45 ± 0.45 | – | –
39 | EDDRDGLLAEREQEEAIAQFPYVE [TMEM106C] | 5.5 ± 0.19 | 5.64 ± 0.1 | – | –
40 | IRVRGQRASRLQAPVLVAAPHSTF [LPCAT4] | 2.6 ± 0.17 | 2.73 ± 0.22 | – | –
41 | MVILISIVIFCLETLPELKDDKDF [KCNA1] | 3.03 ± 0.71 | 2.72 ± 0.52 | – | –
42 | PGPPGSSRPVKGQVVTVHLQTSLE [FKBP8] | 3.5 ± 0.48 | 3.53 ± 0.22 | – | –
43 | HTMEEEEDDDWGEDTTEEAQRRRM [EIF5] | 5.55 ± 0.35 | 5.63 ± 0.28 | – | –
44 | IQNAHKNSTGSGRGKKLMVLTEPI [TPRG1] | 3.89 ± 0.24 | 3.66 ± 0.28 | – | –
45 | FFFSSPGNNNGTSIEDGQIPEIIF [BTBD1] | 2.39 ± 0.22 | 2.44 ± 0.33 | – | –
46 | AVLYPRFMGTISDVKTNVQLLKGR [CD207] | 2.49 ± 0.11 | 2.56 ± 0.16 | – | –

Row | Sequence | protein stability index [1] | protein stability index [2] | protein stability index [3] | protein stability index [4]
47 | STPVCSQKVVVTTPLHRDKTPLHQ [MYBL2] | 3.92 ± 0.22 | 4.26 ± 0.24 | – | –
48 | ARKYFERLPGGGWTLRRTKELRKD [DYRK1B] | 3.66 ± 0.45 | 3.86 ± 0.44 | – | –
49 | EEENIGCEEKAKKNANRPLLDEIV [ACBD3] | 5.25 ± 0.24 | 5.46 ± 0.24 | – | –
50 | VRDGPFGFSPIIGRFCGQQNPPVI [NETO1] | 2.27 ± 0.21 | 2.25 ± 0.19 | – | –
51 | SNRHGHTCLMISCYKGHKEIAQYL [FEM1C] | 2.68 ± 0.55 | 2.43 ± 0.39 | – | –
52 | GEKPFKCHLCNYACRRRDALTGHL [IKZF1] | 2.2 ± 0.12 | 2.51 ± 0.53 | – | –
53 | SDPSTIEASNFQMDRKTRFIIHGF [PNLIPRP1] | 2.42 ± 0.067 | 2.37 ± 0.26 | – | –
54 | IPPKSVNPTCMCCQATSSTACHIQ [FAM219A] | 3.7 ± 0.17 | 3.82 ± 0.26 | – | –
55 | PQLGLDGPGEPDVRDGFSATFEKI [PSD2] | 4.73 ± 0.18 | 4.67 ± 0.13 | – | –
56 | LWGRTQEEAEELAKEMSVPFYTSR [GFOD1] | 3.4 ± 0.18 | 3.61 ± 0.32 | – | –
57 | GCEHSCVSSEDSFVCQCFEGYILR [MATN2] | 3.12 ± 0.38 | 3.27 ± 0.53 | – | –
58 | IQSLTCEVDGLRGTNEALLRQLRE [PRPH] | 3.74 ± 0.4 | 3.96 ± 0.24 | – | –
59 | LQKLLSGRSREELDELTGEVAGGG [FEM1A] | 4.64 ± 0.19 | 4.71 ± 0.2 | – | –
60 | TPHMLLDLSDLLQVDSLRPASFPT [BRF1] | 2.28 ± 0.2 | 2.43 ± 0.2 | – | –
61 | LCSVGASKAVFLWNMDKYTMIRKL [WSB1] | 2.34 ± 0.4 | 2.17 ± 0.31 | – | –
62 | SPISSISPGLHSFTDHQRLMKRRK [KCNK9] | 4.7 ± 0.28 | 4.8 ± 0.16 | – | –
63 | FHGWKYMFGLVIPLGVLQAIAMYF [SLC2A12] | 2.31 ± 0.46 | 2.6 ± 0.56 | – | –
64 | ESVVKSEDFSLPAYMDRRDHPLPE [COX4I1] | 5.1 ± 0.17 | 4.82 ± 0.098 | – | –
65 | VLAIPRRLRVELECEEGELSFYDA [TRIM35] | 2.96 ± 0.2 | 3.08 ± 0.23 | – | –
66 | LPIVAIENILSFMSYDEISQLRLV [FBXO28] | 2.94 ± 0.5 | 2.81 ± 0.43 | – | –
67 | DAISWYQKKIGAYDQQIWEKSIEQ [PHTF1] | 2.77 ± 0.037 | 2.79 ± 0.34 | – | –
68 | LAYLPFKLEKSIDSYYRLVIHRAL [PCDHGA10] | 2.25 ± 0.62 | 2.23 ± 0.81 | – | –
69 | LPQTPHLEEDLKEVLRSEAGIELI [MYBL2] | 4.2 ± 0.44 | 4.37 ± 0.17 | – | –

Row | Sequence | protein stability index [1] | protein stability index [2] | protein stability index [3] | protein stability index [4]
70 | PQHQAGSDSLLTGMAFFKMREMFF [CNOT7] | 2.13 ± 0.16 | 2.15 ± 0.099 | – | –
71 | ILAAACESETRKAAKRMRLEIYQS [NOL4L] | 2.47 ± 0.24 | 2.54 ± 0.05 | – | –
72 | ELGLLIFFLFIGVILFSSAVYFAE [KCNA1] | 2.04 ± 0.53 | 2.06 ± 0.37 | – | –
73 | YVYKAASEGKVLTLAALLLNRSES [FEM1B] | 2.78 ± 0.69 | 2.62 ± 0.56 | – | –
74 | GTAGDSMSYHSGSVFSARDRDPNS [TNXB] | 4.66 ± 0.18 | 4.87 ± 0.14 | – | –
75 | GPRDPQLVPILIEAARNGKMKFVI [NSDHL] | 2.11 ± 0.44 | 2.38 ± 0.38 | – | –
76 | KRFVAMKVVKSAQHYTETALDEIK [SRPK2] | 2.97 ± 0.51 | 2.92 ± 0.38 | – | –
77 | QRTAKGKPVLAKDSSNPYPNFNFN [AASDHPPT] | 3.43 ± 0.45 | 3.74 ± 0.15 | – | –
78 | PIDQGPAIGRVRVLEEQLVKAKEQ [FUT8] | 5 ± 0.16 | 5.09 ± 0.27 | – | –
79 | PRSPECRMIPGQPPASARRLSVPR [IRX6] | 4.47 ± 0.24 | 4.52 ± 0.12 | – | –
80 | QQMVASGTGAVVTSLFMTPLDVVK [SLC25A39] | 2.8 ± 0.17 | 2.98 ± 0.21 | – | –
81 | GPSAEAYLLHPAAFHGAPSHLPTR [TBX6] | 3.31 ± 0.21 | 3.42 ± 0.16 | – | –
82 | EYLENQVIKDKDDSVDAQNICHVW [RNF180] | 3.42 ± 0.26 | 3.57 ± 0.27 | – | –
83 | QVVSQGWKYFKGNFYYFSLIPKTW [CD207] | 2.14 ± 0.41 | 2.1 ± 0.39 | – | –
84 | NAGKVNLPKELPADAVNLTIPASL [PLAGL1] | 4.4 ± 0.25 | 4.43 ± 0.22 | – | –
85 | GLALCPEVQDLLEGCELPDLPSSL [SMG5] | 4.05 ± 0.25 | 3.96 ± 0.25 | – | –
86 | ERDREREPEAASSRGSPVRVKREF [USP39] | 5.4 ± 0.26 | 5.39 ± 0.17 | – | –
87 | KCDSLKEECIPEHMVRESKIMEAE [FAN1] | 5.2 ± 0.39 | 5 ± 0.22 | – | –
88 | PYPVLFHNIFLLGGSSTSERCLLN [NLN] | 3.23 ± 1.5 | 2.59 ± 0.8 | – | –
89 | YVPSSESFIIYLKNIVIADFVMSL [P2RY14] | 2.89 ± 0.96 | 2.74 ± 0.78 | – | –
